{"source": "patent US11884710B2", "about": "“Peptide compounds and methods of use in wound healing” (priority 2013, dated 2024)", "molecules": {"B1": {"name": "CAP37: cationic antimicrobial protein of Mr 37 kDa; recombinant CAP37 produced in human embryonic kidney (HEK) 293 cells (protein)", "chain": "IVGGRKARPRQFPFLASIQNQGRHFCGGALIHARFVMTAASCFQSQNPGVSTVVLGAYDLRRRERQSRQTFSISSMSENGYDPQQNLNDLMLLQLDREANLTSSVTILPLPLQNATVEAGTRCQVAGWGSQRSGGRLSRFPRFVNVTVTPEDQCRPNNVCTGVLTRRGGICNGDGGTPLVCEGLAHGVASFSLGPCGRGPDFFTRVALFRDWIDGVLNNPGP"}}, "key": {"PKCδ": {"test_system": "PKCδ", "experiment": "Immunofluorescence for PKCδ in HCEC monolayers", "type": "cell-based, human", "conditions": "CAP37 250 and 500 ng/ml; 15 minutes; scratched and non-scratched monolayers", "procedure": "(§1) HCEC monolayers were grown to confluency and were scratched with a 10 μl pipette tip or left unscratched, and then the monolayers were treated for 15 minutes with (A-B) buffer, (C-D) PMA (1 μM), (E-F) 250 ng/ml CAP37, and (G-J) 500 ng/ml CAP37. Cells were stained for PKCδ (250 ng/ml; (A-H)), and PKCα (1 μg/ml; (I-J)) and detected using immunofluorescence (4 μg/ml, ALEXA FLUOR® 488 dye (Life Technologies Corp., Grand Island, N.Y.)). […] Scratched monolayers that were treated for 18 hours with CAP37 (250 ng/ml; (L)) or left untreated (K) were stained for PKCδ. […] Scale bars, 20 μm.\n(§2) Immunofluorescence: HCECs and primary HCECs were cultured on Lab-Tek® II glass chamber slides (Nunc, Rochester, N.Y.) and starved overnight in basal media. For wounding studies, monolayers were scratched with a 10 μl pipette tip or left unscratched and treated with 1 μM phorbol 12-myristate 13-acetate (PMA, Sigma-Aldrich), rCAP37 (25-500 ng/ml), or basal KSFM (Gibco) for 15 minutes. After treatment, the cells were fixed in 4% (v/v) formaldehyde solution (Thermo, Rockford, Ill.) in PBS (Gibco) for 20 minutes at room temperature followed by permeabilization in 0.5% TRITON™-X 100 (Mallinckrodt, St. Louis, Mo.) in PBS for 10 minutes. Remaining formaldehyde was quenched with 0.05 M ammonium chloride (NH4Cl, Sigma-Aldrich, St. Louis, Mo.) in PBS for 10 minutes. […]"}, "mouse cornea": {"test_system": "mouse cornea", "experiment": "Histology (H&E) of corneal wound closure and re-epithelialization", "type": "in vivo", "conditions": "rCAP37 250 ng/ml", "procedure": "FIG. 23 is a histological analysis of corneal wound closure and re-epithelialization in response to CAP37. Corneas of mice were wounded using the Algerbrush II and treated at 0 and 16 hours with rCAP37 (250 ng/ml) or vehicle (normal saline). Whole eye globes were enucleated at 0, 24, and 48 hours post wounding, and sections were stained using hematoxylin and eosin (H&E). Representative images are shown of (A) CAP37-treated wound at 24 hours, (B) vehicle-treated wound at 24 hours, (C) CAP37-treated wound at 48 hours, and (D) vehicle treated wound at 48 hours. The extent of closure and re-epithelialization of wounds was compared with (E) normal unwounded cornea.\nHistology: Whole mouse eyes were collected for histology at 0, 6, 16, 24, and 48 hours post wounding and were immediately placed in Prefer fixative (Anatech LTD., Battle Creek, Mich.) for 20 minutes before being transferred to 70% ethanol. Tissues were paraffin-embedded and cut at a thickness of 5 μm, mounted on SUPERFROSTPLUS® slides (Statlab Medical Products, Lewisville, Tex.), and subsequently deparaffinized, rehydrated, and washed in deionized water. Sections were stained with hematoxylin (Leica Microsystems, Buffalo Grove, Ill.) and rinsed twice in deionized water before being washed in Blue Buffer (Leica Microsystems). […]"}, "[1]": {"test_system": "human corneal epithelial cell (HCEC)", "experiment": "HCEC chemotaxis, modified Boyden chemotaxis chamber", "type": "cell-based", "conditions": "rCAP37 250 ng/ml; positive control for the peptide", "procedure": "The effect of buffer control (0.1% BSA in Gey's buffer), heparin binding-epidermal growth factor (HB-EGF, 50 ng/ml), recombinant CAP37 (rCAP37, 250 ng/ml), 120-146QH (10^−12M, 10^−10 M, 10^−8 M, 10^−6M, and 10^−4M,) and 120-146QR (10^−10M, 10^−8M, 10^−6M, and 10^−4M) on HCEC chemotaxis was determined by the modified Boyden chemotaxis chamber method. HCEC chemotaxis was measured in response to HB-EGF, rCAP37, and peptides 120-146QH (SEQ ID NO:29) and 120-146QR (SEQ ID NO:28) after incubation for 3 hours at 37° C. Chemotaxis is expressed as a percent migration. The buffer control (no chemoattractant) is arbitrarily assigned the value of 100% migration. Data are expressed as means±SEM and are calculated from 6 observations for each test point. **P<0.01 by Wilcoxon signed-rank test as compared to controls.\nChemotaxis: Chemotaxis assays were performed using the modified Boyden chemotaxis chamber assay. Peptide 120-146QH was used at 10^−4 M, 10^−6 M, 10^−8 M, 10^−10 M, and 10^−12 M, and peptide 120-146QR was used at 10^−4 M, 10^−6 M, 10^−8M, and 10^−10M."}, "PKCα": {"test_system": "PKCα", "experiment": "Immunofluorescence for PKCα in HCEC monolayers", "type": "cell-based, human", "conditions": "CAP37 500 ng/ml; 15 minutes", "procedure": "as §1, §2"}}, "data": [{"molecule": "B1", "values": [{"measurement": "PKCδ staining, in words", "setting": "PKCδ", "value": "dose-dependent increase in PKCδ staining"}, {"measurement": "re-epithelialization vs vehicle, in words", "setting": "mouse cornea; 24 hours", "value": "greatly accelerated in comparison to the vehicle-treated wounds"}, {"measurement": "structural integrity of the epithelium, in words", "setting": "mouse cornea; 48 hours", "value": "regained full integrity"}, {"measurement": "migration of HCECs vs buffer control, in words", "setting": "[1]", "value": "significant increase in migration"}, {"measurement": "PKCα staining, in words", "setting": "PKCα", "value": "no increase in PKCα staining"}]}]}
